Target: monoclonal anti-H2a antibody of hybridoma clone B9 (ECACC provisional accession number 04030801)
Experiment: competitive ELISA, B9 ascitic fluid preincubated overnight with free specific peptide, then added to the peptide-coated plate

B1: H2 carboxyterminal peptide (SEQ ID NO. 1, …) (peptide)
peptide: CEKRRNATGEVA
% inhibition of the reaction: 81%

Source: patent EP1601683B1
